Laboratory results: patent US20200339638

Legend:
Experiment in all cases: cell_activity
ZFP-TF 75109 (synthetic) = conditions: expanded isoform, C9 patient fibroblasts; about 50% total C9 maintained
ZFP-TF 75114 (synthetic) = conditions: expanded sense transcript, C9021 fibroblasts; total C9 preserved >50%; no repression in C9-BAC mice (p172)
ZFP-TF 75115 (synthetic) = conditions: expanded sense transcript, C9021 fibroblasts; total C9 preserved >50%

CACGCCCCGGCCCCGGCCCCGGCCCCTA (double strand) [C9orf72 antisense target, frame 4]
activity (ZFP-TF 75109 (synthetic)): 70 % repression | activity (ZFP-TF 75114 (synthetic)): > 70 % repression | activity (ZFP-TF 75115 (synthetic)): > 70 % repression
